± gives the uncertainty stated by the source.
Assay: amyloid nucleation score (Sup35N fusion, yeast selection) (log enrichment); library NNK3; higher = more nucleation; inactive = no reads after selection
Outline: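 Peptides of 20 random codons, each fused to Sup35N, were expressed in psi-negative yeast. Cells were induced with 100 μM copper sulfate for 24 hours and grown 7 days at 30°C on medium lacking adenine and uracil, and plasmid inserts before and after selection were Illumina-sequenced. Nucleation scores are DiMSum log enrichments of output over input reads, centred on the mode score of non-aggregating sequences, and sequences under 100 input reads were excluded.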

| Substance | amyloid nucleation score |
| --- | --- |
| KDRSCNALWGLDCLYGNKGC | -0.197 ± 0.61 |
| DSFGLFCYTYLWCLWQANDK | 2.05 ± 0.097 |
| VVLCVLEYYKFF | 0.848 ± 0.25 |
| NWKLYWYNVSCL | 1.65 ± 0.067 |
| MWSDLGV | -0.173 ± 0.87 |
| YVNFWKLVIREINFKKNGEP | inactive |
| FHSSS | inactive |
| KVLLWPSWFK | inactive |
| NRLFTH | inactive |
| FRLRGLKLTSNMDDWMLIKE | inactive |
| KVVVMDCWWNNIYCTDQWVI | -0.021 ± 0.22 |
| GNFSRLDSCFTVVRARVKCN | inactive |
| CSRFIREADTWRNRDYWWVF | -0.349 ± 1.2 |
| QLINWFRSDDLSLTAVKRKW | 0.596 ± 0.19 |
| ELSTMIKSSCPPLIDRWLFP | inactive |
| DLSVWRALYNGLLQRASH | inactive |
| YPALINSVFITDAIGGPYCL | inactive |
| MILLFVVAFILLTEYICWAI | 0.601 ± 0.18 |
| RSRSYRMGSLLVKSWILTLT | inactive |
| PTITMANKDRFLRRCSPNGG | inactive |
| TYMPAVIIYRVLQAMTAAHH | inactive |
| MGVVRFTYCDIKV | inactive |
| YCLFASMKDDAQGTQNCDRS | inactive |
| NFCLVRGVNLANPFSNDCKS | inactive |

| Substance | amyloid nucleation score |
| --- | --- |
| FNWRLSSITDSSVYLPSWNL | inactive |
| TKVFVLHSYDCTIKTSGFNS | inactive |
| MRARLANKQGMGPRTRVASV | inactive |
| MILKNWNVSISRGSRFNSYV | inactive |
| CYNGTLGCGYRVLIRVSGSW | inactive |
| SSLVL | inactive |
| GHGSFE | inactive |
| FSLMLSRTTMAIFTDIRDWG | inactive |
| MLDISMEVSGCSILS | -0.261 ± 0.52 |
| MVYGVSAVEVKSSLVGWVVA | inactive |
| IPSIWMGISRK | inactive |
| DFRSLWTRLSSHRSAFYLLS | inactive |
| LKGTCFLIPYLVTSGSSLVS | inactive |
| VAYRTGSDG | inactive |
| PRNMVFYVFCNVSLTHAMYS | 0.845 ± 0.12 |
| IFSVFLLTMLEQRQKAHSLM | inactive |
| ETFVGLEVNWNSCNCFIVQE | 1.87 ± 0.076 |
| VCLLNWFWIYDQYVRQLTVV | inactive |
| WNLFDHRIGNKQRNGYDVYE | inactive |
| RRFGAFCIVPFERIVLDGWE | inactive |
| VWFINFVCLFKGSLLCISES | inactive |
| CQRGTVADAPYLQRRLGLLY | inactive |
| QKVYNFMWYLFQYIELVYMN | inactive |
| CLNNRSFNPKMQYPLVTMDH | inactive |

| Substance | amyloid nucleation score |
| --- | --- |
| FGVGMALALCQRH | inactive |
| SIHLMWRQCYFSLLCVNKGM | inactive |
| LMVMGVSSCLTFAIDILRNM | 1.13 ± 0.16 |
| CSGTSSFRDLTCGCRHCFVG | 1.3 ± 0.099 |
| LVIVRWNAVYTYIGFDF | inactive |
| YSVAVREIVGMNSKLLCDVN | inactive |
| HFARDPLSERSKFPLIF | 0.623 ± 0.15 |
| RRHAR | inactive |
| ERELGQRLSCTGNSTVWSYE | inactive |
| KLGMSPSSLYSPAR | inactive |
| VVNKPIHISSTYTLYSVVLA | inactive |
| FLAYGWWHYKWSGNDTLHSF | inactive |
| SRVILL | inactive |
| PLSLGFVIGHHVSIPGSSTD | inactive |
| FCRRSGSFVLDMTYWGMYRP | 0.156 ± 0.32 |
| HKRLMFDMYHPIWMFYCSAC | inactive |
| ALSGSGLRLTPMKQ | inactive |
| VNNKSFCRWAGANNLLQVMH | inactive |
| DFSMSVNSA | inactive |
| SAKFTLLGISL | inactive |
| QQGFSVLERCISEV | inactive |
| VITVSVTHNNANFFQMTDGM | 2.88 ± 0.055 |
| STIVL | inactive |
| GSISIVVQM | 2.2 ± 0.075 |

| Substance | amyloid nucleation score |
| --- | --- |
| KVTLRNRFISMPNFMIEP | inactive |
| PSVPSNHLDCYLTWGT | inactive |
| FLTRIHFLCTCVRRNG | 1.37 ± 0.1 |
| IKVLVWFRSRCGNGANNLVC | inactive |
| LHRSCAIAA | inactive |
| KLASLFNYCSERKN | inactive |
| LSFQAMLVR | inactive |
| LFYKREALMRGISSFKELSN | inactive |
| NMDSVV | inactive |
| LCFFV | inactive |
| TYEGITVVTFVSYSYAIREP | 0.703 ± 0.096 |
| FCTGWSNGLVNHVDYKKGRN | inactive |
| KSDPPGTVLYYTLAQPLYLL | inactive |
| GMTEGYYLESVGGSKFDNVV | inactive |
| DTGFCYKFNYIPVDVIICIC | 1.32 ± 0.12 |
| QALGVGN | inactive |
| VKTYFTSLRFVISMGWLNNQ | inactive |
| LQSVMFLPICFLLT | inactive |
| IRSYERVSRLTGVVGSTSVD | inactive |
| CPYSFEAAEYFRYGRVGYFT | inactive |
| KRSSSAAIKKRIIVQIDGNR | inactive |
| SFLGLMSMEELITS | inactive |
| EVRRRDLYLWKASETLLRLL | inactive |
| FVSLALGFGILSFYKDRLWD | 0.598 ± 0.33 |

| Substance | amyloid nucleation score |
| --- | --- |
| IWVGRTDFWFWHVTGEDCLG | inactive |
| LGDAFWFEIH | inactive |
| LLIDNVCSNIARVMHKVWLW | inactive |
| SDFDMFSCLGNRNLHCSVSV | inactive |
| ILWQYQTCC | -0.457 ± 0.73 |
| RNCVSSGCCRRFSD | inactive |
| GRSWVLV | inactive |
| LSFDVKASWV | inactive |
| YFFIPLMF | 0.725 ± 0.14 |
| MFLFFHVFKDFQIHRDLQDW | 0.08 ± 0.59 |
| LTTESNLHVCVRRVGQLHLA | inactive |
| NRIMGVGLY | inactive |
| YSQVVW | inactive |
| FILGWCGIYSTACPNTSTGT | inactive |
| VHLYADPDVMQYNRWDVVGY | inactive |
| SKFCSGSLFMIRCILGSRYL | inactive |
| TGDSLLLAHLLWSMDIVNMN | inactive |
| RDYQCLQLYCRSASPIT | inactive |
| TVGGFAWLDNSLSDRMFDTS | inactive |
| MSVRPL | inactive |
| FVYSCNC | 2.34 ± 0.08 |
| DCFNNWWVTHYQQINFPTVA | inactive |

— the supplement of paper PMC12042874
